Paper PMC6172828
pKd: −log10 of the molar value.

What was measured:
[1] = target: human ATF7IP peptide, K16me3, C-terminal biotin (human); assay: SPR; same chip and buffer, 25 °C; kinetics not fitted, KD by steady-state affinity analysis; for all tri-methylated peptides and LIG1 K126me2 G9a SET-domain in twofold dilutions from 200 µM
[2] = target: histone H3 peptide, K9me1, C-terminal biotin (human); assay: SPR; biotinylated peptides immobilised on streptavidin chip SA, Biacore T200, 25 °C, 10 mM HEPES pH 7.4, 150 mM NaCl; G9a SET-domain 1.5-fold dilutions from 20 or 10 µM; 1:1 binding model, KD calculated from kon and koff
[3] = target: histone H3 peptide, K9me2, C-terminal biotin (human); assay: as above
[4] = target: histone H3 peptide, unmodified (K9me0), C-terminal biotin (human); assay: as above
[5] = target: human ATF7IP peptide, K16me1, C-terminal biotin (human); assay: as above
[6] = target: human ATF7IP peptide, K16me2, C-terminal biotin (human); assay: as above
[7] = target: human ATF7IP peptide, unmodified (K16me0), C-terminal biotin (human); assay: as above

pKd [1]: < 6.00
pKd [2]: 6.37
pKd [3]: 6.46
pKd [4]: 7.05
pKd [5]: 7.37
pKd [6]: 7.42
pKd [7]: 6.74
Substance: human G9a SET-domain (residues 913–1193) (from UniProt Q96KQ7 913-1193) (domain or fragment)
